Results reported in US20190144550A1.
Where a chain is given by its changes, count along the chain named. Values belong to the binder of their own block, whether it stands above or below them.

Key:
[1] = target: wild-type EGFR expressed on cells (human), P00533; experiment: flow cytometry, F98-EGFRwt cells; conditions: remark: other sources report otherwise
[2] = target: wild-type EGFR expressed on cells (human), P00533; experiment: flow cytometry, A431 cells; conditions: remark: other sources report otherwise

- MFI [1]: 371
- % positive [2]: 1.1%
- MFI [2]: 294
B3: 34E7 (antibody, V domains shown)
VH: EVNLVESGGGLVKPGGSLRLSCEASGFTFSYAWMSWVRQAPGKGLEWVGRIKSINDGGATDYASPVRNRFTISRDDSRNMLYLEMHSLKTEDTAVYYCTTIPGNDAFDMWGQGTLVTVSS
VL: DIVLTQSPLSLSVTPGEPASISCRSTQSLLYSNGKNYLDWFLHKPGQSPQLLIFLGSIRASGVPDRFSGSGSGIDFILKISRVEAEDVGVYYCMQAQQTPITFGQGTRLEIK

- % positive [1]: 1.6%
- MFI [1]: 301
- MFI [2]: 271
B4: 32G8 (antibody, V domains shown)
VH: B3 VH with N55T, A59V, T60I, S64A, F70C, M80T, A106D, T114R, L115M
VL: B3 VL with T26S, F54Y, I58N

- % positive [1]: 1.6%
- MFI [1]: 185
- % positive [2]: 0.3%
- MFI [2]: 538
B8: 42G9 (antibody, V domains shown)
VH: QVTLKESGPVLLKPTETLTLTCTVSGFSLSNPRMGVSWIRQPPGKALEWFAHIFSTDEKSLKLSLRSRLTLSKDTSKSQVVLTMTNMAPVDSATYYCARDSSNYEGYFDFWGQGTLVTVSS
VL: EVVLTQSPATLSVSPGERATLSCRASQSVRSNLAWYQQKSGQAPRLLIYGSTIRATGVPARFSGSGSGTEFTLTISSLQSEDFAVYYCQQYSDWPFTFGPGTKVDIK

- % positive [1]: 1.3%
- MFI [1]: 185
- % positive [2]: 0.8%
- MFI [2]: 599
B10: 49B11 (antibody, V domains shown)
VH: B8 VH with L12V, P32V, T56S, L61I, K62R, L63R, A88D, S92T, F110Y
VL: EMEVTQSPATLSVSPGERATLSCRASQNIGSDLAWYQQQSGQAPRLLISGASTRATGVPTRFSGSGSGTDFTLTITSLQSEDFAVYYCQQYNDWPFTFGPGTKVDIK

- % positive [1]: 1.6%
- MFI [1]: 187
- MFI [2]: 560
B12: 46E10 (antibody, V domains shown)
VH: B8 VH with L12V, P32A, F50L, L61I, K62R, L63R, T83I, A88D, S92T, F110Y
VL: EVVMTQSPPNLSVSPGERATLSCRASQSVTSNFAWYQQRPGQSPRLLLYGASTRATGVPGRFSGSGSGTENILTISSLQSEDFAVYFCQQYKDWPFTFGPGSKVDIK

- MFI [1]: 185
- MFI [2]: 531
B14: 32A10 (antibody, V domains shown)
VH: B8 VH with L12V, P32A, F50L, L61I, K62R, L63R, A88D, S92T, Y96F, F110Y
VL: B12 VL with P9A, N10T, A19V, T30S, S43A, S52T, V58L, V85I

- % positive [1]: 1.7%
- MFI [1]: 280
- % positive [2]: 1.3%
- MFI [2]: 269
B19: 30D8 (antibody, V domains shown)
VH: EVQLVESGGGLVKPGGSLRLSCEASGFTFSDAWMSWVRQAPGKGLEWVGRIKSKTDGGTTDYVVPLNGRFIISRDDSRNTLYLQLNNLKTEDTAVYYCTTVPGSYGYWGQGTLVTVSS
VL: DIVMTQSPLSLPVTPGEPASISCRSSQSLLHNKRNNYLDWFLQKPGQSPQLLIYLASNRASGVPDRFSGGGSGTDFTLKISRVEAEDVGVYYCMQAQQTPITFGQGTRLEIK

Second part, the binder before the results:

B1: 11F10 (antibody, V domains shown)
VH: QVTLKESGPVLVKPIETLTLTCTVCGFSLSNPRMGVSWIRQPPGKALEWLGHIFSSDEKSYRLFLRSRLSISKDTSKSQVVLTMTNMDPVDTATYYCARDSSDYEGYFDYWGQGTLVTVSS
VL: EIVMTQSPATLSVSPGERTTLSCRASQSVGSNLAWYQQKPGQAPRLLIYGASTRASGVPARFSGSGSGTEFTLTISSLQSEDFAVYSCQEYNNWPFTFGQGTKVEIK
- % positive [1]: 1.6%
- MFI [1]: 187
- % positive [2]: 1.1%
- MFI [2]: 582

B2: 20E12 (antibody, V domains shown)
VH: B3 VH with N55A, S64A, M80T, L115M
VL: B3 VL with T26S, F54Y, I58N
- % positive [1]: 3.4%
- MFI [1]: 348
- % positive [2]: 2.6%
- MFI [2]: 302

B5: 20B9 (antibody, V domains shown)
VH: QVTLKESGPVLVKPTETLTLTCTVSGFSLSNARMGVSWIRQPPGKALEWLGHIFSTDEKSYSTSLRGRITISKDTSRGLVVLTLTNMDPVDTATYYCARDSSNYEGYFDFWGPGFLVTVSS
VL: EIVMTQSPATLSVSPGERATLSCRVSQSIGANLAWYQQKFGQAPRLLIYGASTRATGIPVRFSGGGSGTEFTLTISSLQSEDFAIYSCQQYIYWPFTFGPGTTVDIK
- % positive [1]: 1.8%
- MFI [1]: 189
- MFI [2]: 558

B6: 20G5 (antibody, V domains shown)
VH: EVQLVESGGDLVKPGGSLRLSCAASGFTFTNAWMSWVRQAPGKGLEWVGRIKSKIDGGTTDYAAPVKGRFIISRDDSKNTLSLQMNSLKTEDTAMYYCTTAPGGPFDYWGQGSLVTVSS
VL: DIVLTQSPLSLPVTPGEPASISCRSSQSLLYSDRRNYLDWFLQKPGQSPHLLIYLGSYRASGVPDRFSGSGSGTDFTLKISRVEAEDVGVYYCMQALQIPITFGQGTRLEIK
- % positive [1]: 12.6%
- MFI [1]: 1070
- MFI [2]: 391

B7: 26B9 (antibody, V domains shown)
VH: EVQLVESWGVLVKPGGSLRLSCAASGFIFNNAWMSWVRQAPGKGLEWIGRIKSKSDGGTTDYAAPVKDRFTISRDDSKDTLYLQMNGLKTEDTAVYFCTTAPGGPFDYWGQGTLVTVSS
VL: B6 VL with Y31H, S32R, R34G, R35F, H50Q, G56A, Y58S, G71D, I99T
- % positive [1]: 2.3%
- MFI [1]: 298
- % positive [2]: 1.7%
- MFI [2]: 276

B9: 12H6 (antibody, V domains shown)
VH: B8 VH with L12V, P32A, F50L, L61I, K62R, L63R, A88D, S92T, F110Y
VL: B12 VL with P9A, N10T, S28G, T30S, V85I
- % positive [1]: 1.9%
- MFI [1]: 188
- % positive [2]: 0.8%
- MFI [2]: 569

B11: 14C11 (antibody, V domains shown)
VH: B8 VH with L12V, S30N, P32A, L61F, K62R, L63T, A88D, S92T, F110Y, T115I
VL: EIVMTQSPATLSVSPGERATLSCRASQSVSNNLAWYQQKPGQAPRLLIYGASTRATGVPARFSGSDSGTEFSLTISSLQSEDFAVYFCQQYKDWPFTFGPGTKVEIK
- % positive [1]: 1.3%
- MFI [1]: 185
- % positive [2]: 0.8%
- MFI [2]: 580

B13: 19A9 (antibody, V domains shown)
VH: B8 VH with K5E, L12V, P32A, L47P, K62R, A88D, S92T, F110Y
VL: EVVMTQSPATLSVSPGERATLSCRASQSVNRNLAWYQQKPGQAPRLLIFGTSTRATGIPARFSGSGSGTEFTLTIDSLQSEHSGLYYCQQYNDWPFTFGPGTKVDIK
- % positive [1]: 1.6%
- MFI [1]: 168
- MFI [2]: 578

B15: 21E7 (antibody, V domains shown)
VH: B8 VH with K5E, L12V, P32A, L47P, K62R, A88D, S92T, F110Y
VL: B13 VL with E1D, M4L, R31S, K39N, T51S, R61S, D76N, G84A, L85V
- % positive [1]: 1.3%
- MFI [1]: 184
- % positive [2]: 1.1%
- MFI [2]: 603

B16: 11B11 (antibody, V domains shown)
VH: QVTLKESGPVLVKPTETLTLTCTVSGFSLSNAKMGVSWIRQPPGKALEWLAHIFSTDEKSIRRSLRSRLTMSKDTSKSQVVLTMTNMDPVDTATYYCVRDSSNYEGYFDYWGQGTLVTVSS
VL: B12 VL with V3L, P9A, N10T, T30S, S31T, S43A, Y49F, V58I, V85I, D105E
- % positive [1]: 1.7%
- MFI [1]: 187
- MFI [2]: 589

B17: 12B2 (antibody, V domains shown)
VH: B1 VH with I15T, C25S, F64S, A98V, D103N, E105G
VL: EVVMTQSPATLSVSPGERATLSCRASQSVINNLAWYQQKPGQAPRLLIYGTSTRATDIPARFSGSGSGTEFTLTISSLQSEDFAVYYCQDYNNWPFTFGPGTKVDIK
- % positive [1]: 1.5%
- MFI [1]: 185
- % positive [2]: 0.8%
- MFI [2]: 571

B18: 29D5 (antibody, V domains shown)
VH: QVTLKESGPVLVKPTETLTLTCTVSGFSLSNPRMGVSWLRQPPGKALEWFAHIFSTDEKSYSPSLRGRLTVSKDTSKSQVVLTLTNMDPVDTATYYCARDSSNYEGYFDYWGQGTLVTVSS
VL: KIVMTQSPATLSVSPGERATLSCRANQIVSSNLAWYQQKPGQAPRLLVFGTSTRATGIPIRFSGSGSGTEFTLTVSSLQSEDFAVYVCQQYNDWPFTFGPGTKVDIK
- % positive [1]: 1.3%
- MFI [1]: 185
- % positive [2]: 0.4%
- MFI [2]: 531

B20: 21E11 (antibody, V domains shown)
VH: QVTLKESGPVLVKPTETLTLTCTVSGFSLSNVRMGVSWIRQPPGKALEWFAHIFSSDEKSIRRSLRSRLTLSKDTSKSQVVLTMTNMDPVDTATYYCARDSSNYEGYFDFWGQGTLVTVSSN
VL: B10 VL with E1D, E3V, N28S, I29V, Q39P, S40P, A43S, S49Y, T60A, Q79E
- % positive [1]: 1.3%
- MFI [1]: 184
- MFI [2]: 555
